Data: patent US20100311648A1 (AstraZeneca / MedImmune, published 2010)
Blank lines part the entries; values can stand above or below the binder they belong to. Positions of bridges follow the written chain, without caps; N, C: chain ends. Non-standard residues stand in square brackets, D forms with d. dPhe(2-CF3) = N[C@H](Cc1ccccc1C(F)(F)F)C(=O)O; dPhe(4-CN) = N#Cc1ccc(C[C@@H](N)C(=O)O)cc1; dPhe(3-Cl) = N[C@H](Cc1cccc(Cl)c1)C(=O)O; dPhe(2-Me) = Cc1ccccc1C[C@@H](N)C(=O)O; dPhe(4-F) = N[C@H](Cc1ccc(F)cc1)C(=O)O; Orn = NCCC[C@H](N)C(=O)O

Tests used:
[1] = target: T1, human melanocortin-4 receptor (human, UniProt P32245 1-332); assay: cell-based or functional assay
T1 sequence (P32245 whole entry): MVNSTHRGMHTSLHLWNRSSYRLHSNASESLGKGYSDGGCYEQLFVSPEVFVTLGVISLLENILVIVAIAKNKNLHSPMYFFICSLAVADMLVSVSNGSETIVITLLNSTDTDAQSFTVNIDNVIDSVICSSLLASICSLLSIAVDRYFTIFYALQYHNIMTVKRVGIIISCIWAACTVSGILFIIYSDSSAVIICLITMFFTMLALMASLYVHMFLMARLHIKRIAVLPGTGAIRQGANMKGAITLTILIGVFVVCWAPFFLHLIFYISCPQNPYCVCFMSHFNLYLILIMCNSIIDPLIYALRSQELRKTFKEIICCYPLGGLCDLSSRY

melanocortin-1 receptor = target: T2, melanocortin-1 receptor (mouse (B-16 melanoma cells); in some …, UniProt Q01727 1-315); assay: [I125]-NDP-α-MSH competition, MC1-R membranes
T2 construct: whole, on cells; membrane homogenates; also called MC1-R; mouse B16 MC1-R
T2 sequence (Q01727 whole entry): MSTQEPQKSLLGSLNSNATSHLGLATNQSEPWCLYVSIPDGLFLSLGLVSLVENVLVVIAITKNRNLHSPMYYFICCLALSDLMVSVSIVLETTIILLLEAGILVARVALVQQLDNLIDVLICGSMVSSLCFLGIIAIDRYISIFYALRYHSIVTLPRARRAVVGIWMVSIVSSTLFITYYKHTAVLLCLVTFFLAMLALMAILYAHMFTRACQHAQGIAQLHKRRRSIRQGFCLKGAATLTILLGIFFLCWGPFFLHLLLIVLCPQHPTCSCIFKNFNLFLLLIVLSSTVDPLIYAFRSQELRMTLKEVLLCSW
Experimental: (§1) A competitive inhibition binding assay was performed for exemplified peptides according to the invention using membrane homogenates prepared from HEK-293 cells that express recombinant hMC4-R, hMC3-R, or hMC5-R, and from B-16 mouse melanoma cells (containing endogenous MC1-R). In some instances, HEK-293 cells that express recombinant hMC1-R were employed. Assays were performed in 96 well GF/B Millipore multiscreen filtration plates (MAFB NOB10) pre-coated with 0.5% bovine serum albumin (Fraction V). […] After incubation for 60 minutes at 37° C., the assay mixture was filtered and the membranes washed three times with ice-cold buffer. Filters were dried and counted in a gamma counter for bound radioactivity. […] Each assay was conducted in triplicate and the actual mean values are described, with results less than 0% reported as 0%. Ki values for test peptides of the present invention were determined using Graph-Pad Prism® curve-fitting software.

[2] = target: T1, human melanocortin-4 receptor; assay: [I125]-NDP-α-MSH competition, hMC4-R HEK-293 membranes
Experimental: as §1

Binder: Ac-R[Orn]N[dPhe(2-Me)]RWE-NH2 (lactam 2-7, also called No. 74) [Ac-Arg-cyclo(Orn-Asn-D-Phe(2-Me)-Arg-Trp-Glu)-NH2]
EC50, cAMP, 0.1 ng/mL Doxycycline [1]: 0.943 nM | EC50, cAMP, 10 ng/mL Doxycycline [1]: 0.11 nM | Intrinsic Activity, cAMP, 0.1 ng/mL Doxycycline [1]: 68% | Intrinsic Activity, cAMP, 10 ng/mL Doxycycline [1]: 100% | Ki (melanocortin-1 receptor): 405 nM | Ki [2]: 5 nM

Binder: Ac-R[Orn]Q[dPhe(2-CF3)]RWE-NH2 (lactam 2-7, also called No. 115) [Ac-Arg-cyclo(Orn-Gln-D-Phe(2-CF3)-Arg-Trp-Glu)-NH2]
EC50, cAMP, 0.1 ng/mL Doxycycline [1]: 0.8 nM | EC50, cAMP, 10 ng/mL Doxycycline [1]: 0.17 nM | Intrinsic Activity, cAMP, 0.1 ng/mL Doxycycline [1]: 54% | Intrinsic Activity, cAMP, 10 ng/mL Doxycycline [1]: 108% | Ki (melanocortin-1 receptor): 235 nM | Ki [2]: 4 nM

Binder: Ac-REQ[dPhe(3-Cl)]RW[Orn]-NH2 (lactam 2-7, also called No. 38) [Ac-Arg-cyclo(Glu-Gln-D-Phe(3-Cl)-Arg-Trp-Orn)-NH2]
EC50, cAMP, 0.1 ng/mL Doxycycline [1]: 2 nM | EC50, cAMP, 10 ng/mL Doxycycline [1]: 0.258 nM | Intrinsic Activity, cAMP, 0.1 ng/mL Doxycycline [1]: 31% | Intrinsic Activity, cAMP, 10 ng/mL Doxycycline [1]: 97% | Ki (melanocortin-1 receptor): 290 nM | Ki [2]: 3 nM

B1: Ac-Arg-cyclo(Glu-Asp-D-Phe(4-CN)-Arg-Trp-Orn)-OH (peptide)
peptide: Ac-RED[dPhe(4-CN)]RW[Orn]-OH
modifications: lactam 2-7
SMILES: CC(=O)N[C@@H](CCCNC(=N)N)C(=O)N[C@H]1CCC(=O)NCCC[C@@H](C(=O)O)NC(=O)[C@H](Cc2c[nH]c3ccccc23)NC(=O)[C@H](CCCNC(=N)N)NC(=O)[C@@H](Cc2ccc(C#N)cc2)NC(=O)[C@H](CC(=O)O)NC1=O
notes: also called No. 107
Intrinsic Activity, cAMP, 0.1 ng/mL Doxycycline [1]: 4% | Intrinsic Activity, cAMP, 10 ng/mL Doxycycline [1]: 64% | Ki (melanocortin-1 receptor): 10000 nM | Ki [2]: 6460 nM

B4: Ac-Arg-cyclo(Glu-Asp-D-Phe(4-CN)-Arg-Trp-Orn)-NH2 (peptide)
peptide: Ac-RED[dPhe(4-CN)]RW[Orn]-NH2
modifications: lactam 2-7
SMILES: CC(=O)N[C@@H](CCCNC(=N)N)C(=O)N[C@H]1CCC(=O)NCCC[C@@H](C(N)=O)NC(=O)[C@H](Cc2c[nH]c3ccccc23)NC(=O)[C@H](CCCNC(=N)N)NC(=O)[C@@H](Cc2ccc(C#N)cc2)NC(=O)[C@H](CC(=O)O)NC1=O
notes: also called No. 106
EC50, cAMP, 10 ng/mL Doxycycline [1]: 113 nM | Intrinsic Activity, cAMP, 0.1 ng/mL Doxycycline [1]: 3% | Intrinsic Activity, cAMP, 10 ng/mL Doxycycline [1]: 77% | Ki (melanocortin-1 receptor): 10000 nM | Ki [2]: 647 nM

Second part, the binder after the results:

EC50, cAMP, 0.1 ng/mL Doxycycline [1]: 1 nM | EC50, cAMP, 10 ng/mL Doxycycline [1]: 0.177 nM | Intrinsic Activity, cAMP, 0.1 ng/mL Doxycycline [1]: 43% | Intrinsic Activity, cAMP, 10 ng/mL Doxycycline [1]: 100% | Ki (melanocortin-1 receptor): 870 nM | Ki [2]: 5 nM
Binder: Ac-REN[dPhe(4-CN)]RW[Orn]-NH2 (lactam 2-7; also: acetate salt, acetate salt form; also called Ex 43) [Ac-Arg-cyclo(Glu-Asn-D-Phe(4-CN)-Arg-Trp-Orn)-NH2]

EC50, cAMP, 10 ng/mL Doxycycline [1]: 9 nM | Intrinsic Activity, cAMP, 0.1 ng/mL Doxycycline [1]: 3% | Intrinsic Activity, cAMP, 10 ng/mL Doxycycline [1]: 59% | Ki (melanocortin-1 receptor): 10000 nM | Ki [2]: 128 nM
B2: Ac-Arg-cyclo(Glu-Glu-D-Phe(4-CN)-Arg-Trp-Orn)-NH2 (peptide)
peptide: Ac-REE[dPhe(4-CN)]RW[Orn]-NH2
modifications: lactam 2-7
SMILES: CC(=O)N[C@@H](CCCNC(=N)N)C(=O)N[C@H]1CCC(=O)NCCC[C@@H](C(N)=O)NC(=O)[C@H](Cc2c[nH]c3ccccc23)NC(=O)[C@H](CCCNC(=N)N)NC(=O)[C@@H](Cc2ccc(C#N)cc2)NC(=O)[C@H](CCC(=O)O)NC1=O

EC50, cAMP, 0.1 ng/mL Doxycycline [1]: 11 nM | EC50, cAMP, 10 ng/mL Doxycycline [1]: 0.617 nM | Intrinsic Activity, cAMP, 0.1 ng/mL Doxycycline [1]: 22% | Intrinsic Activity, cAMP, 10 ng/mL Doxycycline [1]: 99% | Ki (melanocortin-1 receptor): 1620 nM | Ki [2]: 18 nM
B3: Ac-Arg-cyclo(Glu-Thr-D-Phe(4-CN)-Arg-Trp-Orn)-NH2 (peptide)
peptide: Ac-RET[dPhe(4-CN)]RW[Orn]-NH2
modifications: lactam 2-7
SMILES: CC(=O)N[C@@H](CCCNC(=N)N)C(=O)N[C@H]1CCC(=O)NCCC[C@@H](C(N)=O)NC(=O)[C@H](Cc2c[nH]c3ccccc23)NC(=O)[C@H](CCCNC(=N)N)NC(=O)[C@@H](Cc2ccc(C#N)cc2)NC(=O)[C@H]([C@@H](C)O)NC1=O
notes: also called No. 44

EC50, cAMP, 0.1 ng/mL Doxycycline [1]: 1 nM | EC50, cAMP, 10 ng/mL Doxycycline [1]: 0.14 nM | Intrinsic Activity, cAMP, 0.1 ng/mL Doxycycline [1]: 38% | Intrinsic Activity, cAMP, 10 ng/mL Doxycycline [1]: 99% | Ki (melanocortin-1 receptor): 130 nM | Ki [2]: 5 nM
Binder: Ac-REP[dPhe(4-F)]RW[Orn]-NH2 (lactam 2-7; also: acetate salt, acetate salt form; also called Ex 67) [Ac-Arg-cyclo(Glu-Pro-D-Phe(4-F)-Arg-Trp-Orn)-NH2]
